Measured values: publication PMC3721678

How the values were obtained:
Experiment in all cases: SPR
[1] = target: IgA1-Fc Fc (Homo sapiens) (UniProt P01876); conditions: cited from earlier work
[2] = target: Hinge region glycopeptide (HR-GalNAc) (human)
[3] = target: monomeric IgA1Mce myeloma protein (human)
[4] = target: monomeric IgA1κ myeloma protein (human)
[5] = target: monomeric IgA1λ myeloma protein (human)
[6] = target: polymeric IgA1Ale myeloma protein (human)
[7] = target: polymeric IgA1Mce myeloma protein (human)
[8] = target: polymeric IgA1κ myeloma protein (human)
[9] = target: polymeric IgA1λ myeloma protein (human)

Chain of IgA1-Fc Fc (Homo sapiens) (P01876 120-340): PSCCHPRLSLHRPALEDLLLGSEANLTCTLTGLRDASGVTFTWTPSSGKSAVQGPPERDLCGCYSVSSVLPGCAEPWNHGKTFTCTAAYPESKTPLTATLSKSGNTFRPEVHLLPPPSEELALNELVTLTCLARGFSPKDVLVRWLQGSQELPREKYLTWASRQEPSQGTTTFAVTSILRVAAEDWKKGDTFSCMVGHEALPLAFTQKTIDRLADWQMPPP
Chain of FcαRI (P24071 22-287): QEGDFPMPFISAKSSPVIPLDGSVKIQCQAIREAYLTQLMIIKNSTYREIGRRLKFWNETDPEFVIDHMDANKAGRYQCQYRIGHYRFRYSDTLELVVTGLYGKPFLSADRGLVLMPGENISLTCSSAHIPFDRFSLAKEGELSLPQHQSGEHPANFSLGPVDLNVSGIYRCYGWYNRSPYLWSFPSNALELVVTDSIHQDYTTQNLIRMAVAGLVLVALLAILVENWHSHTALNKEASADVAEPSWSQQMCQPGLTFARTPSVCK

| KD1 (two-site model, apparent) [2] [µM] | KD2 (two-site model, apparent) [2] [µM] | KD1 (two-site model, apparent) [3] [µM] | KD2 (two-site model, apparent) [3] [µM] | KD1 (two-site model, apparent) [4] [µM] | KD2 (two-site model, apparent) [4] [µM] | KD1 (two-site model, apparent) [5] [µM] | KD2 (two-site model, apparent) [5] [µM] | KD1 (two-site model, apparent) [6] [µM] | KD2 (two-site model, apparent) [6] [µM] | KD1 (two-site model, apparent) [7] [µM] | KD2 (two-site model, apparent) [7] [µM] | KD1 (two-site model, apparent) [8] [µM] | KD2 (two-site model, apparent) [8] [µM] | KD1 (two-site model, apparent) [9] [µM] | KD2 (two-site model, apparent) [9] [µM] | Substance | Kd [1] [nM] |
| --- | --- | --- | --- | --- | --- | --- | --- | --- | --- | --- | --- | --- | --- | --- | --- | --- | --- |
|  |  |  |  |  |  |  |  |  |  |  |  |  |  |  |  | FcαRI (from UniProt P24071) | 9 |
| 0.11 | 7 | 7.2 | 76 | 1.8 | 8 | 6.2 | 73 | 1 | 14 | 5.6 | 70 | 1.7 | 25 | 3 | 28 | Helix aspersa agglutinin (natural protein) |  |
| 0.045 | 2.3 | 2.3 | 24 | 0.76 | 10 | 1.8 | 21 | 0.58 | 6 | 1.1 | 7 | 0.65 | 11 | 1.1 | 5 | Helix pomatia agglutinin (natural protein) |  |
